B1: mRNA-splicing (parent)
chain: AGUUGCUGCUGGGAGCUCCAGCACAGUGAAAUGGACAGAAGGGCAGAGCAA

In this series the parent is B1. Kind of series: exon inclusion enrichment index; higher = more inclusion; WT1 exon 5 minigene, HEK293.
Regarding AGUUCUUCUCGGGAGCUCCAGCACAGUGAAAUGGAGGGAAGGGCAGAGCAA [G5C C6U G8C C9U U10C C36G A37G], the “exon inclusion enrichment index” value was found to be 0.3.

On to AGUUACCACCGGGAGCUCCAGCACAGUGAAAUGGACAGAAUAGCAGAGCAA [G5A U7C G8A U10C G41U G42A], for which the “exon inclusion enrichment index” value was determined as 0.909. Take AGUUCUUCUCGGGAGCCGCAGCACAGUGAAAUGGACAGAAGGGCAGAGCAA [G5C C6U G8C C9U U10C U17C C18G]: the “exon inclusion enrichment index” value turned out to be 2.39.

Regarding AGUUCGCGCCGGGAGCUCCAGCACAGUGAAAUGGGGAGAAGGGCAGAGCAA [G5C C6G U7C U10C A35G C36G], the “exon inclusion enrichment index” value was 0.751. As to AGUUUCUUUUGGGAGCUCCAGCACAUCGAAAUGGACAGAAGGGCAGAGCAA [G5U G8U C9U G26U U27C], the “exon inclusion enrichment index” value was 0.729. Take ACCUGACGACGGGAGCUCCAGCACAGUGAAAUGGACAGAAGGGCAGAGCAA [G2C U3C C6A U7C C9A U10C]: the “exon inclusion enrichment index” value was determined as 2.79. As for AGUUGAAGAAGGGAGCUCCGACACAGUGAAAUGGACAGAAGGGCAGAGCAA [C6A U7A C9A U10A A20G G21A], the “exon inclusion enrichment index” value was found to be 1.2.

As to ACAUGCUGCUGGGAGCUCCAGCACAGUGAAAUGGACAGAAGGGCAGAGCAA [G2C U3A], the “exon inclusion enrichment index” value stood at 0.0779.

With AGUUUCUUUUGGGAGCUCCAGCACAGUGAAAUGGACAGAAGGGCAAGGCAA [G5U G8U C9U G46A A47G], the “exon inclusion enrichment index” value was determined as 0.0611. Consider AGUAUAAGAAGGGAGCUCCAGCACAGUGAAAUGGACAGAAGGGCAGAGCAA [U4A G5U C6A U7A C9A U10A], for which the “exon inclusion enrichment index” value amounted to 0.0651. Turning to AGUUGUCGAAGGGAGCUCCAGCACAGUGAAAUGGACAGAAGGGCAGAGCAA [C6U U7C C9A U10A], the “exon inclusion enrichment index” value came out at 0.879. AGUUUCUUUUGCUAGCUCCAGCACAGUGAAAUGGACAGAAGGGCAGAGCAA [G5U G8U C9U G12C G13U]: the “exon inclusion enrichment index” value worked out at 0.0014. The value for AGUUCUUCUCCGGAGCUCCAGCACAGUGAAAUGGACAGAAGGGCAGAGCAA [G5C C6U G8C C9U U10C G11C] was 2.41; that for AGUUGAAUAUGGGAGCUCCAGCACAGUGAAAUGGACAGAAGGGCAGAGCAA [C6A U7A G8U C9A] was 0.467; that for AGUUAGGGAUGGGAGCUCCAGCACAGUGAAAUGGGGAGAAGGGCAGAGCAA [G5A C6G U7G C9A A35G C36G] was 0.00533. Then AGCACUUCUCGGGAGCUCCAGCACAGUGAAAUGGACAGAAGGGCAGAGCAA [U3C U4A G5C C6U G8C C9U U10C], with 1.61; and AGUUCUUCUCGGGAGCUCCAGCACAGUGAAAUGGACAGAAGGGCCUAGCAA [G5C C6U G8C C9U U10C A45C G46U], with 0.726; and AGUUGACGACGGGAGCUCCAGCACAGUGAAAUGGACAGACUGGCAGAGCAA [C6A U7C C9A U10C A40C G41U], with 1.87. On to AGUUCGCGCCGGGAGCUCCAGCACAGUGAAAUGGACAGAAGGGCAGCGCAA [G5C C6G U7C U10C A47C], for which the “exon inclusion enrichment index” value was determined as 3.06. Then AGUUAUAUAUGGGAGCUCCAGCACAAGGAAAUGGACAGAAGGGCAGAGCAA [G5A C6U U7A G8U C9A G26A U27G], with 0.168; and AGUUGCUGCUGGGAGCUCCAGCACAGUGAAAUGGACGAAAGGGCAGAGCAA [A37G G38A], with 0.201; and AGUUAUAUAUGGGAGCUCCAGCACAUGGAAAUGGACAGAAGGGCAGAGCAA [G5A C6U U7A G8U C9A G26U U27G], with 0.261. As for AGUUACCACCGGGAGCUCCAGCACAGUGAAAUGGACAGAAGGGCACAGCAA [G5A U7C G8A U10C G46C], the “exon inclusion enrichment index” value came out at 2.03.
